This is an account of results in patent US20240117018A1.

The target in assay [1] is HIV-1 Env pseudovirus CNE5 (HIV-1). In words: cell-based or functional assay.
In assay [2] the target is HIV-1 Env pseudovirus 231965.c01 (HIV-1). In words: cell-based or functional assay.
Assay [3] concerns the target HIV-1 Env pseudovirus T255-34 (HIV-1). The experiment in a line: cell-based or functional assay.
The target of assay [4] is HIV-1 Env pseudovirus X1193_c1 (HIV-1). The experiment in a line: cell-based or functional assay.
In assay [5] the target is HIV-1 Env pseudovirus C3347.c11 (HIV-1). The experiment in a line: cell-based or functional assay.
In assay [6] the target is HIV-1 Env pseudovirus 231966.c02 (HIV-1). In words: cell-based or functional assay.
The target of assay [7] is HIV-1 Env pseudovirus 3301.v1.c24 (HIV-1). In words: cell-based or functional assay.
In assay [8] the target is HIV-1 Env pseudovirus 6952.v1.c20 (HIV-1). In words: cell-based or functional assay.
The target of assay [9] is HIV-1 Env pseudovirus 6480.v4.c25 (HIV-1). In words: cell-based or functional assay.
Assay [10] concerns the target HIV-1 Env pseudovirus C4118.c09 (HIV-1). The experiment in a line: cell-based or functional assay.
Assay [11] deals with HIV-1 Env pseudovirus BJOX009000.02.4 (HIV-1). The experiment in a line: cell-based or functional assay.
The target in assay [12] is HIV-1 Env pseudovirus 6041.v3.c23 (HIV-1). In words: cell-based or functional assay.
The target in assay [13] is HIV-1 Env pseudovirus 3016.v5.c45 (HIV-1). The experiment in a line: cell-based or functional assay.
Assay [14] has as its target HIV-1 Env pseudovirus C2101.c01 (HIV-1). In words: cell-based or functional assay.
For assay [15], the target named is HIV-1 Env pseudovirus X2131_C1_B5 (HIV-1). In words: cell-based or functional assay.
In assay [16] the target is HIV-1 Env pseudovirus T251-18 (HIV-1). The experiment in a line: cell-based or functional assay.
In assay [17] the target is HIV-1 Env pseudovirus BJOX015000.11.5 (HIV-1). In words: cell-based or functional assay.
Assay [18] addresses HIV-1 Env pseudovirus P0402_c2_11 (HIV-1). In words: cell-based or functional assay.
Assay [19] deals with HIV-1 Env pseudovirus 0815.v3.c3 (HIV-1). In words: cell-based or functional assay.
Assay [20] has as its target HIV-1 Env pseudovirus T250-4 (HIV-1). In words: cell-based or functional assay.
The target of assay [21] is HIV-1 Env pseudovirus 3103.v3.c10 (HIV-1). In words: cell-based or functional assay.
The target in assay [22] is HIV-1 Env pseudovirus 235-47 (HIV-1). In words: cell-based or functional assay.
Assay [23] deals with HIV-1 Env pseudovirus 6540.v4.c1 (HIV-1). The experiment in a line: cell-based or functional assay.
The target of assay [24] is HIV-1 Env pseudovirus X1632_S2_B10 (HIV-1). In words: cell-based or functional assay.
Assay [25] has as its target HIV-1 Env pseudovirus T278-50 (HIV-1). The experiment in a line: cell-based or functional assay.
The target in assay [26] is HIV-1 Env pseudovirus 211-9 (HIV-1). The experiment in a line: cell-based or functional assay.
For assay [27], the target named is HIV-1 Env pseudovirus BJOX010000.06.2 (HIV-1). In words: cell-based or functional assay.
Assay [28] addresses HIV-1 Env pseudovirus 3817.v2.c59 (HIV-1). The experiment in a line: cell-based or functional assay.
The target of assay [29] is HIV-1 Env pseudovirus X1254_c3 (HIV-1). In words: cell-based or functional assay.
The target in assay [30] is HIV-1 Env pseudovirus 6811.v7.c18 (HIV-1). The experiment in a line: cell-based or functional assay.
Assay [31] addresses HIV-1 Env pseudovirus BJOX025000.01.1 (HIV-1). In words: cell-based or functional assay.
Assay [32] concerns the target HIV-1 Env pseudovirus R2184.c04 (HIV-1). The experiment in a line: cell-based or functional assay.
The target of assay [33] is HIV-1 Env pseudovirus C1080.c03 (HIV-1). The experiment in a line: cell-based or functional assay.
Assay [34] addresses HIV-1 Env pseudovirus 89-F1_2_25 (HIV-1). The experiment in a line: cell-based or functional assay.
The target in assay [35] is HIV-1 Env pseudovirus 6545.v4.c1 (HIV-1). In words: cell-based or functional assay.
Assay [36] concerns the target HIV-1 Env pseudovirus P1981_C5_3 (HIV-1). The experiment in a line: cell-based or functional assay.
The target of assay [37] is HIV-1 Env pseudovirus BJOX028000.10.3 (HIV-1). The experiment in a line: cell-based or functional assay.
Assay [38] addresses HIV-1 Env pseudovirus R1166.c01 (HIV-1). The experiment in a line: cell-based or functional assay.
Assay [39] deals with HIV-1 Env pseudovirus A07412M1.vrc12 (HIV-1). The experiment in a line: cell-based or functional assay.
Assay [40] has as its target HIV-1 Env pseudovirus X2088_c9 (HIV-1). In words: cell-based or functional assay.
The target of assay [41] is HIV-1 Env pseudovirus R3265.c06 (HIV-1). In words: cell-based or functional assay.
Assay [42] deals with HIV-1 Env pseudovirus 620345.c01 (HIV-1). The experiment in a line: cell-based or functional assay.
Assay [43] deals with monomeric HIV-1 Ba-L gp120 (HIV-1 Ba-L). In words: retention on the gp120 affinity column.
The target in assay [44] is HIV-1 93TH057 gp120 coree (HIV-1). In words: EBI PISA on PDB 5te6 (structure not solved in this filing).
For assay [45] the target is unchanged. In words: EBI PISA on PDB 3ngb (structure not solved in this filing).

Turning to 45-46 (antibody), the IC50 (Titer in TZM.bl cells) in assay [1] was 0.09 mg/L; in assay [2], 0.1 mg/L; in [3] it was 0.23 mg/L; in [4], 0.04 mg/L; in assay [5] it was 0.03 mg/L; in assay [6] it was 1.11 mg/L. The IC50 (Titer in TZM.bl cells) in assay [7] was 0.01 mg/L; in assay [8], 0.02 mg/L; in [9] it was 0.02 mg/L; in [10] it was 0.14 mg/L; in [11] it was 0.26 mg/L; in assay [12] it was 0.01 mg/L. For the same substance, the IC50 (Titer in TZM.bl cells) is greater than 30 mg/L in assay [13]; 12.8 mg/L in [14]; 0.2 mg/L in assay [15]; 5.26 mg/L in assay [16]; 0.06 mg/L in assay [17]; 0.06 mg/L in assay [18]. Further, the IC50 (Titer in TZM.bl cells) was 0.01 mg/L in [19]; greater than 30 mg/L in [20]; 1.66 mg/L in assay [21]; 0.3 mg/L in [22]; greater than 50 mg/L in [23]; 0.07 mg/L in [24]. Besides, the IC50 (Titer in TZM.bl cells) was greater than 30 mg/L in assay [25]; greater than 50 mg/L in assay [26]; 0.87 mg/L in assay [27]; greater than 50 mg/L in assay [28]; 0.08 mg/L in assay [29]; 0.03 mg/L in [30]. The IC50 (Titer in TZM.bl cells) in [31] was 0.18 mg/L; in assay [32], 0.03 mg/L; in assay [33], 1.79 mg/L; in [34], greater than 50 mg/L; in [35], greater than 50 mg/L; in assay [36] it was 0.05 mg/L. Moreover, the IC50 (Titer in TZM.bl cells) in [37] was 0.07 mg/L; in assay [38] it was 1.68 mg/L; in [39], 0.03 mg/L; in [40], greater than 50 mg/L; in assay [41], 0.04 mg/L; in [42] it was greater than 30 mg/L. For the same substance, the IC80 (Titer in TZM.bl cells) was found to be 0.41 mg/L in assay [1]; 0.1 mg/L in assay [2]; 2.38 mg/L in assay [3]; 0.16 mg/L in [4]; 0.18 mg/L in [5]; 11.4 mg/L in assay [6]. The IC80 (Titer in TZM.bl cells) worked out at 0.03 mg/L in assay [7]; 0.07 mg/L in assay [8]; 0.08 mg/L in [9]; 0.91 mg/L in assay [10]; 1.16 mg/L in [11]; 0.04 mg/L in assay [12]. Also, the IC80 (Titer in TZM.bl cells) in [13] was greater than 30 mg/L; in assay [14], greater than 50 mg/L; in [15], 0.9 mg/L; in [16], 5.26 mg/L; in assay [17], 0.38 mg/L; in assay [18] it was 0.26 mg/L. The IC80 (Titer in TZM.bl cells) in assay [19] was 0.03 mg/L; in assay [20], greater than 30 mg/L; in assay [21] it was 6.57 mg/L; in assay [22] it was 1.49 mg/L; in assay [23] it was greater than 50 mg/L; in [24], greater than 50 mg/L. Moreover, the IC80 (Titer in TZM.bl cells) in assay [25] is greater than 30 mg/L; in [26] it was greater than 50 mg/L; in [27], 6.37 mg/L; in assay [28], greater than 50 mg/L; in assay [29] it was 0.08 mg/L; in assay [30], 0.13 mg/L. Further, the IC80 (Titer in TZM.bl cells) in [31] is 10 mg/L; in assay [32] it was 0.12 mg/L; in assay [33], 18 mg/L; in [34], greater than 50 mg/L; in [35], greater than 50 mg/L; in assay [36], 0.22 mg/L. The IC80 (Titer in TZM.bl cells) is greater than 50 mg/L in assay [37]; 1.68 mg/L in assay [38]; 0.13 mg/L in [39]; greater than 50 mg/L in assay [40]; 0.44 mg/L in assay [41]; greater than 30 mg/L in assay [42].
In assay [43], Synagis (antibody) displayed a recovery on the gp120 affinity column of less than 1%.
N6 Fab yielded a buried surface area, CDR H3 in [44] of 123 Å^2.
VRC01 Fab had a buried surface area, CDR H3 in assay [45] of 160 Å^2.
